According to patent US20240409647A1 (SINOMAB BIOSCIENCE, published 2024):

Key:
[1] = target: T1, human IL-17 receptor subunit E (human, UniProt Q8NFR9 24-454, limits assumed); experiment: ELISA, coated receptor; SM17 at 0.00064 µg/mL; well 2
T1 construct: also called hIL17RE
T1 sequence (looked up): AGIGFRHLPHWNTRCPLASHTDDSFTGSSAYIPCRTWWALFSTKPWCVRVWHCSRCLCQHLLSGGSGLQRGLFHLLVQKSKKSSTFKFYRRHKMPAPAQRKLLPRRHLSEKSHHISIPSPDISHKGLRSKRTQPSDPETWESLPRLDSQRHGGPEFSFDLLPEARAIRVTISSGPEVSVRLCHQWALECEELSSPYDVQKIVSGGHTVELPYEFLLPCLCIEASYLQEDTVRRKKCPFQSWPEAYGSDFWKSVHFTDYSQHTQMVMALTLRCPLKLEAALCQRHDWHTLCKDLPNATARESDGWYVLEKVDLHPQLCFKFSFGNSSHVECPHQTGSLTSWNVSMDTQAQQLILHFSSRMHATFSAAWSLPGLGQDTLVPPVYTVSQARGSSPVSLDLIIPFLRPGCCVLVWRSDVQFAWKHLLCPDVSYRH

[2] = target: T2, human IL-17 receptor subunit A (human, UniProt Q96F46 33-320); experiment: as above
T2 construct: also called IL17RA; hIL17RA

[3] = target: T3, human IL-17RB protein (recombinant, R&D systems) (human); experiment: ELISA, coated receptor; SM17 at 0.00064 µg/mL; well 1
T3 construct: Bought protein; also called hIL17RB
T3 sequence (Q9NRM6 whole entry, looked up): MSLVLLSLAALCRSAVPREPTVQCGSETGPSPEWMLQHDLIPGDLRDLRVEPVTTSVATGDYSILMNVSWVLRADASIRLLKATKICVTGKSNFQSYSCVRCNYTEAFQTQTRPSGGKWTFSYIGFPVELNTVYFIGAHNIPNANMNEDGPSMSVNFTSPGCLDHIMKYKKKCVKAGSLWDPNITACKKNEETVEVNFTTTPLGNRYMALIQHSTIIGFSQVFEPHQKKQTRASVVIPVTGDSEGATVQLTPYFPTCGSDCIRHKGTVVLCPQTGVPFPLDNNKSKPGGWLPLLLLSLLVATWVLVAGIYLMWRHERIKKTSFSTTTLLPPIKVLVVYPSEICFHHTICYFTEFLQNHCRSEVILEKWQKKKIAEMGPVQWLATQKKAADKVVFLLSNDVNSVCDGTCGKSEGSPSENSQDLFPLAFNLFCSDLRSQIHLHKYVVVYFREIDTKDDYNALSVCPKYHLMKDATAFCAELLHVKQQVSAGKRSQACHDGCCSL

[4] = target: T2, human IL-17 receptor subunit A; experiment: as above
[5] = target: T4, human IL-17 receptor subunit D (human, UniProt Q8NFM7 28-299, limits assumed); experiment: ELISA, coated receptor; SM17 at 0.016 µg/mL; well 1
T4 construct: also called IL17RD; hIL 17RD
T4 sequence (looked up): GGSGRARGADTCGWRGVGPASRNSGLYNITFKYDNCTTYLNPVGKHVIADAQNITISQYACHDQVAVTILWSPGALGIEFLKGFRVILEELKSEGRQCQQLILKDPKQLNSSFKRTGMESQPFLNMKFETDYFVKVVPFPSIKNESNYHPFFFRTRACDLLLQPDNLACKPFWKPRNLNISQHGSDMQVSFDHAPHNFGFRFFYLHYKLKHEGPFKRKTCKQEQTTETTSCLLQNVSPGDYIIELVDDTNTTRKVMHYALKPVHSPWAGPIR

[6] = target: T1, human IL-17 receptor subunit E; experiment: as above
[7] = target: T3, human IL-17RB protein (recombinant, R&D …); experiment: as above
[8] = target: T2, human IL-17 receptor subunit A; experiment: as above
[9] = target: T5, human IL-17 receptor subunit C (human, UniProt Q8NAC3-2 21-467, limits assumed); experiment: as above
T5 construct: also called IL17RC; hIL17RC
T5 sequence (looked up): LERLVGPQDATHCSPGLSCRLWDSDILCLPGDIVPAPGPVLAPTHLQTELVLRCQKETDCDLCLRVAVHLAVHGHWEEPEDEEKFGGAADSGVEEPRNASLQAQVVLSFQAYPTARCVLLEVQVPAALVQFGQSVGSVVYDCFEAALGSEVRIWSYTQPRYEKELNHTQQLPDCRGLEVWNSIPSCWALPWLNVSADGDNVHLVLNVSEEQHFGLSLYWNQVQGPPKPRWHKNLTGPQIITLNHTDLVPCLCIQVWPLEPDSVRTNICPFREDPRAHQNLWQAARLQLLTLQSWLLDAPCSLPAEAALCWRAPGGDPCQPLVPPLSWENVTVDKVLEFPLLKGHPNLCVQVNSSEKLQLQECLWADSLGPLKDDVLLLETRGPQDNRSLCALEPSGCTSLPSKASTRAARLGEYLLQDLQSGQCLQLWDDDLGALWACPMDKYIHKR

[10] = target: T4, human IL-17 receptor subunit D; experiment: ELISA, coated receptor; SM17 at 0.4 µg/mL; well 1
[11] = target: T1, human IL-17 receptor subunit E; experiment: ELISA, coated receptor; SM17 at 0.4 µg/mL; well 1
[12] = target: T3, human IL-17RB protein (recombinant, R&D …); experiment: ELISA, coated receptor; SM17 at 0.4 µg/mL; well 1
[13] = target: T2, human IL-17 receptor subunit A; experiment: ELISA, coated receptor; SM17 at 0.4 µg/mL; well 1
[14] = target: T5, human IL-17 receptor subunit C; experiment: ELISA, coated receptor; SM17 at 0.4 µg/mL; well 1

OD 450 nm Absorption [1]: -0.16 OD450 | OD 450 nm Absorption [2]: 0.05 OD450 | OD 450 nm Absorption [3]: 0.13 OD450 | OD 450 nm Absorption [4]: 0 OD450 | OD 450 nm Absorption [5]: 0.07 OD450 | OD 450 nm Absorption [6]: 0 OD450 | OD 450 nm Absorption [7]: 0.35 OD450 | OD 450 nm Absorption [8]: 0.01 OD450 | OD 450 nm Absorption [9]: 0.09 OD450 | OD 450 nm Absorption [10]: 0.22 OD450 | OD 450 nm Absorption [11]: 0.08 OD450 | OD 450 nm Absorption [12]: 1.26 OD450 | OD 450 nm Absorption [13]: 0.21 OD450 | OD 450 nm Absorption [14]: 0.25 OD450
B1: SM17 (antibody, human IgG4 S228P, kappa, V domains shown)
VH: QVQLVQSGAEVKKPGASVKVSCKASGYTFISYWMNWVRQAPGQGLEWMGRIDPYDSEIQYNQKFKDRVTMTRDTSISTAYMELSRLRSDDTAVYYCARSGGFDWFAYWGQGTLVTVSS
VL: DIQMTQSPSSLSASVGDRVTITCRASENINSNLAWYQQKPGKAPKLLLYDVTNLADGVPSRFSGSGSGTDYTLTISSLQPEDFATYYCQHFWGPPYTFGGGTKVEIKR
notes: other paragraphs and claim 15 call the same entries VH and VL; also called humanized anti-IL17RB monoclonal antibody
